Results on 17 sequences are retold here after a protein production outcome set (Wang et al. 2014).

This series in a line: label from the status in PepcDB records.
On to “MIPELPHAQLDWDDQGRPRSRVFDDVYFSSESGLDETRHVFIEQNRLGQRFAALADGERFVIGETGFGTGLNFLCAWQLFQQQAPTGARLHFVSVEKYPLSPADLQRALALWPELASFSAPLLEQYVAVHGGFQRIVLEGGRVILTLLIGDALEQLPQLDAQVDAWFLDGFAPAKNPDMWTAELFAELARLAAPGSTISTFTSTGWVRRLLNSAGFKMKRTPGIGHKWEVLRGEFLGWPEDAPAPARARPWFARPALGEKTALVIGGGLAGCASAASLAARGWQVQLLERHAELAREASGNPQGVLYLKLSAHGTALSQMILSGFGYTRRQLEHLQRGQDWDGCGVLQLAFNAKEAERQAQLAAAFPADLLHLLDQPQAQARAGIGLEHGGLFYPEGGWVHPPALCQWQASHPRIQVLAHREVLELRRVDEQWQAWDGDRMLASAAVVILAGAAEIKRFPASADLPLKRIRGQITRLPQTAQSQSLATVVCAEGYVAPARLGEHTLGASFDFKSQDLTPTSAEHAGNLEMLREISSDLLQRLGAEQLPLDSLQGRAAFRCTSPDYLPIVGPLADPLAFAETYAALGKDARQVPDLPCPWLDGLYINSGHGSRGLITAPLSGELLAAWLENEPLPLPRSVAEACHPNRFALRRLIRGKA”, for which the protein production result is “failed”. To “MGIQETDPLTQLSLPPGFRFYPTDEELMVQYLCRKAAGYDFSLQLIAEIDLYKFDPWVLPNKALFGEKEWYFFSPRDRKYPNGSRPNRVAGSGYWKATGTDKIISTEGQRVGIKKALVFYIGKAPKGTKTNWIMHEYRLIEPSRRNGSTKLDDWVLCRIYKKQSSAQKQVYDNGIANAREFSNNGTSSTTSSSSHFEDVLDSFHQEIDNRNFQFSNPNRISSLRPDLTEQKTGFHGLADTSNFDWASFAGNVEHNNSVPELGMSHVVPNLEYNCGYLKTEEEVESSHGFNNSGELAQKGYGVDSFGYSGQVGGFGFM” belongs “failed”; to “HVQLSLPVLQVRDVLVRGFGDSVEEALSEAREHLKNGTCGLVELEKGVLPQLEQPYVFIKRSDALSTNHGHKVVELVAEMDGIQYGRSGITLGVLVPHVGETPIAYRNVLLRKNG”, “not failed”; to “MAKKVVGEIKLQIPAGKANPSPPVGPALGQRGVNIMEFCKAFNERTKDMGSFNIPVIITVYQDKSFTFITKKPPVTDLIKKASGVEKGSDNPLKNKIAKLTHKQVEEIAQLKMEDLNTSTMEAAKKIVMGSARSMGVEVVD”, “failed”. In the case of “MKREAEGGFQNRYLSNCPGSSRLRVWVPIVEASPGRRPYPFRCQPCNFRLGGRAVGGLAAAQPGGRPRWRRAARRAARAPAPPWLPLPSSPRSNPLTRLLPWFKSIDLNKPIDKRIYKGTQPTCHDFNQFTAATETISLLVGFSAGQVQYLDLIKKDTSKLFNEERLIDKTKVTYLKWLPESESLFLASHASGHLYLYNVSHPCASTPPQYSLLKQGEGFAVYAAKSKAPRNPLAKWAVGEGPLNEFAFSPDGRHLACVSQDGCLRVFHFDSMLLRGLMKSYFGGLLCVCWSPDGRYVVTGGEDDLVTVWSFTEGRVVARGHGHKSWVNAVAFDPYTTRAEETASASGDGDPSGEEEEPEATSSDTGAPVSPLPKAGSVTYRFGSAGQDTQFCLWDLTEDVLSPHPPLARTRTLPGTPGATPPASGGSRAGETGAGPLPRSLSRSNSLPHPAGGGKAGGPSVSMEPGVPFSIGRFATLTLQERRDRGAEKEHKRYHSLGNISRGGSGGNSSNDKLNGPAPRSRLDPAKVLGTALCPRIHEVPLLEPLVCKKIAQERLTVLLFLEDCIITACQEGLVCTWARPGKAFTDEETETQAGEASWPRSPSKSVVEGISSQPGSSPSGTVV”, the protein production entry is given as “failed”.

As for “MAQNKNLNLELSLSQYVEDDPWVLKKKLSDSDLYYSAQLYLPKQEMEHFVLPEMDHDLVRKLGAGVEVKVRDVDSVDDFYTVRLKVRNGQYYLGKGWGLIKNAKVLNTGDHIGLFWDKLTREVKFKHFKSQSITMHREAGTTSTQKNVLQKK”, the protein production result is recorded as “failed”.

For “MFKDGSLIPYLTAGDPDKQSTLNFLLALDEYAGAIELGIPFSDPIADGKTIQESHYRALKNGFKLREAFWIVKEFRRHSSTPIVLMTYYNPIYRAGVRNFLAEAKASGVDGILVVDLPVFHAKEFTEIAREEGIKTVFLAAPNTPAERLKVIDDMTTGFVYLVSLYGTTGAREEIPKTAYDLLRRAKRICRNKVAVGFGVSKREHVVSLLKEGANGVVVGSALVKIIGEKGREATEFLKKKVEELLGI”, the protein production result is “not failed”. As to “MRKNEYVNLPVICLVGPTASGKSGLAVRVCRRLYVDEHPAEIINTDSMVVYRGMDIGTATPTLREQRTVVHHLVSILDVTVPSSLVLMQTLARDAVEDCLSRGVIPVLVGGSALYTKAIIDEMSIPPTDPEVRARWQEKLDAEGPRVLHDELARRDPKAAESILPGNGRRIVRALEVIDLTGSFTATIPDGTLHWPKTVQMGLELSRKDIDQRIADRVDQMWAYGFVDEVRSLANVGLREGLTASRALGYRQVLEYLNGDYDEDEARRRTIIGTRRFARKQLMWYRRDDRIEWFNALAPDLDDRVVARVLTALTTDEED”, the protein production result is “failed”.

With “MTTKNMNTPPGSTQENEIDLLRLVGELWDHRKFIISVTALFTLIAVAYSLLSTPIYQADTLVQVEQKQGNAILSGLSDMIPNSSPESAPEIQLLQSRMILGKTIAELNLRDIVEQKYFPIVGRGWARLTKEKPGELAISWMHIPQLNGQDQQLTLTVGENGHYTLEGEEFTVNGMVGQRLEKDGVALTIADIKAKPGTQFVLSQRTELEAINALQETFTVSERSKESGMLELTMTGDDPQLITRILNSIANNYLQQNIARQAAQDSQSLEFLQRQLPEVRSELDQAEEKLNVYRQQRDSVDLNLEAKAVLEQIVNVDNQLNELTFREAEISQLYKKDHPTYRALLEKRQTLEQERKRLNKRVSAMPSTQQEVLRLSRDVEAGRAVYLQLLNRQQELSISKSSAIGNVRIIDPAVTQPQPVKPKKALNVVLGFILGLFISVGAVLARAMLRRGVEAPEQLEEHGISVYATIPMSEWLDKRTRLRKKNLFSNQQRHRTKNIPFLAVDNPADSAVEAVRALRTSLHFAMMETENNILMITGATPDSGKTFVSSTLAAVIAQSDQKVLFIDADLRRGYSHNLFTVSNEHGLSEYLAGKDELNKVIQHFGKGGFDVITRGQVPPNPSELLMRDRMRQLLEWANDHYDLVIVDTPPMLAVSDAAVVGRSVGTSLLVARFGLNTAKEVSLSMQRLEQAGVNIKGAILNGVIKRASTAYSYGYNYYGYSYSEKE”, the protein production result was “failed”. Take “MKSAPDWIAHPDTPYLLIDEAKLKSNINYLKQRVESLGSHLRPHLKTLRTLEAAGYLLDSKSAPATVSTLAEAEAYAKAGYTDLLYAVGIAPAKLKRVAALRQQGINLHILLDNITQAQAVVDYAAEFGQDFSVFIEIDSDDHRGGIKPSDSKLLTIAKTLGEHFTGLMTHAGGSYACNTEQGLKNFAKQECDAVRIARNNLETAGIHCAITSVGSTPTAHFGEDFSDISEVRAGVYTTFDLVMKNIGVCDFSHIAMSVVTTVIGHNKEKNWLLTDSGWMALSRDSGTAGQNRDFGYGQVCKIDGSVLDGLCVNSTSQEHGVIELSDAYQLEDFPVGHQLRIMPNHACATAAMHPVYHVLMSDGSHNTWQRITGW”: the protein production entry is “not failed”. As to “RFGLPVNGALDQYSARAANILAGNLDNHPLLEITALDFRMKANSDVLIAVTGAPLTLTVGGRPCSQWEPVSVRAGESVSIRGIHRGLRAYLAIHGSIEAGTLLGSAAPDTVVGFGLQLQEGTTLLSRRSVSPVRQPYFDLPLFRLGLERPSMGSDLSVDVTDGPDVAEFGESGELLFTSEYVVSGRSNHIGLRLGGELPERTSSDEVLSRGVPVGAVEVPSREELLVLHRGRGVTAGYPVLAVVTSTGLDVLAQARPGDKVRFRKTTVAEATAAHRRSRAQ”, the protein production result is “failed”.

With “MVKALFSLLFVAFIWGSTFPIQKIVLVGVSPTFYIAVRFFIAALVSYFLFGKGNVKYGSILGTLLGIAYTTQTWGLTITTSTKSGFITSMYIVFVPVFAYLLEREIPTIFQIVSFFAASLGLYMISGGIKDFNFGDFLTLICAVSFALHVVLITMFSKRVKEVDLLFPQFLVVGILNLILNFFWKNWNFTLPALGSAVFTALAATILAIYLQAKYQKALGNNVSAIVFLGEPVFAAVVSYFMLGETMAGKQLLGAALLLISMLFSSLERVKIVRDANQKGRDECEDSL”, the protein production entry was “failed”. Regarding “MSSVCFSVSREKLSGDIMLEKLNHYRQNLNFPLARPKNSSTQFRFDWVDNLRELQEVQRFRATQFSHQFGIHFDDGLDQDLYDFNCEHAVLREKWTGEIVAYTRLKLFQGHELSQSYSAQEFDIVDKLSYLPNVVEIGRTCVHPKFRSGKALSTLWLNLVPKVLWSMKAKYLMGCVSIHLDDNAARVYHTHQKIQRLSAEQTIDISSKCAYEPTHPQFSFPQDERIPKLFQMYLTMQSKLSKEAFYDEDFNCLDYFVFLEVNKIAKSFVMNKMVQR”, the protein production entry is “failed”. The entry for “MVSNIDHKAMEALLRGQGCANNLKILLENGEISSVSTEPLIHTILDSFSLALSFMDSPNHPPYHESSSHNMASHMSRRSSKQKLCVAEGLVNYNHDSRTMCPNDGFTWRKYGQKTIKASAHKRCYYRCTYAKDQNCNATKRVQKIKDNPPVYRTTYLGKHVCKAFAVHDDTYSSTMIRFDQVVPEPIMPQLTTIDHQVITVEENSAEHIMNQECDINDYLVDDDPFWASQFPPFPSSDTMFLENISAFD” is “failed”. Take “MKSFFSIFGDPSVTSVAIGKFDGMHLAHQRLFSYLDEGGAILTVDAQRGNLTPGEYKREFTPFPLYSIPLGKIKHLSGERFIYMLKKAFPNLTKVVVGYDFRFGKNRAFGVEELRGYFAGEVVVVPEVFHRGHSVHSEAIRELIAQGEMNLAGELLGRD”: the protein production result is on record as “failed”. The entry for “MTHRPMLNKIKLFFIVQIILSFLVLAGTLISILVIPSHLPDYFIWAIAFSFWVFQCGFSTIFAFRYRISKSSLSTIKLSFILIGSIQILITLATNLFGIFDLPIFNTLIIKNFQFLILSLIFIVMIYKLIKDMLKYRVLKDYIIRDSFFTFIPFAFIIYKNSKYFISSIYFLDDSVYSLALLNINSLRIFLEGFLIILIFVKTIYLRGNKKSSFLLLIYFYVSNLNCYIVSYFNSKLLFSHYLYQGIGIYFICPILLMLSIYHSITEQEKAPDQVLFDDSYMNINNSWISITIGIFPVSFSAIDIISSSIASGDFNGIESLVIILLVMILLVCRDVILRKDNLRLIASVKRANEIDFLTNMYSRNYFLKKLETINTDYALFFIDIKSFKDINNIFGHVVGDKVLVEVANKFKELKLLLGKNVFYCRYSGNEFALISKLDQVDLILKFFRDLENIKIQHNSDLIHINFNIGYSLNDSNINLDLLIQETDYALMRAKKLKGPNNSILMYDDNLKTDLEHMNILKKDFKNDLLTGKFHLVFQPKVCVKTLKIVGFETLLRWKHDKLGEISPSKFVPIAENLGEISSLDLYVFKKSCEFQRCLIDKGIKLKCSVNLSLNTLKSYEKINEILNIYKEYKIPKHLITAEILENVSLNNNAKTISYINLLRENGICISIDDFGTGYSSLSQISNLYFDELKIPREFVIDARTPSKLAVIEAISILAKKLKVTSVIEGVENYEDFKLFSSLGFDIVQGYYFSKPLTKSEIIDYIKVNINNKIS” is “failed”; for “MKKTMAKSLSVIIPACNEIDTISDVIQSVKGLNPLEIIVVANGCTDGTETVAEHLGCKVLRYTEKLGNDVGRAAGAKEAIGDVLLFIDGDFAIQTSKLQLFLNPILYNQADVVLNNLDALFLKRQKPNSITVWRQILNSILEREELKIDSLLAVPHALTKEVVQSIGYECFVNPILAHLRLVQGKWRISRHCAIDVITPNKFRPTEHAAYGTDLSPSEKRMIGDHIEAVAERIVGSDERGGYCDGNRKRDSVYHTLDFEDFYQGWGVTSNLYKGKQLSVIIPVQNEEKTIGNVIEEVRKIEPFEIIVVVNGSSDQTATIAKDKGATTIVYKEALGNDVGRSLGTYFAKGEIVLFIDGDFVIPASELYPFAKAIADGTDVALNDLNHYLDLRVPLHLVTAFKYALNLACDRKDLGVGSLVAVPNAFSRKCLKQIGYRSLLAPCVAQVKAILSGFEVACVSRVEVDKMNRIRPSEHLAKIGHPPAVLRIIGDHIEGLEQLIGLTGSRGGFHDGNRKRDIL” it is “failed”.
